Data on 1 molecule can be found in article PMC8141524, “The uncharacterized SANT and BTB domain-containing protein SANBR inhibits class switch recombination” (The Journal of Biological Chemistry, 2021).

Series [1] concerns the molecule itself. Kind of series: SEC; purified His6-SANBR(BTB) on a Superdex-200 10/30 column, compared with molecular weight standards; SEC buffer 10 mM HEPES pH 8.0, 0.3 M NaCl, 10% glycerol, 1 mM TCEP. Background: SEC sorts molecules by how far they enter the pores of the column.
Another series concerns the target T1, GST-tagged mouse HDAC1 (mouse, UniProt O09106 1-482).
T1 construct: histone deacetylase 1 (HDAC1), mouse; also called GST-HDAC1; source: E. coli BL21DE3(RIPL), purified (glutathione sepharose 4B, SEC)
Kind of series: pull-down; 200 nM His6-tagged BTB domain with equimolar GST-tagged protein, 50 mM HEPES pH 8.0, 150 mM NaCl, 0.1% IGEPAL-CA630, 2 mM EDTA, 4 °C; glutathione sepharose 4B; immunoblot anti-His. Conditions: both partners purified.

T1 sequence (O09106 whole entry): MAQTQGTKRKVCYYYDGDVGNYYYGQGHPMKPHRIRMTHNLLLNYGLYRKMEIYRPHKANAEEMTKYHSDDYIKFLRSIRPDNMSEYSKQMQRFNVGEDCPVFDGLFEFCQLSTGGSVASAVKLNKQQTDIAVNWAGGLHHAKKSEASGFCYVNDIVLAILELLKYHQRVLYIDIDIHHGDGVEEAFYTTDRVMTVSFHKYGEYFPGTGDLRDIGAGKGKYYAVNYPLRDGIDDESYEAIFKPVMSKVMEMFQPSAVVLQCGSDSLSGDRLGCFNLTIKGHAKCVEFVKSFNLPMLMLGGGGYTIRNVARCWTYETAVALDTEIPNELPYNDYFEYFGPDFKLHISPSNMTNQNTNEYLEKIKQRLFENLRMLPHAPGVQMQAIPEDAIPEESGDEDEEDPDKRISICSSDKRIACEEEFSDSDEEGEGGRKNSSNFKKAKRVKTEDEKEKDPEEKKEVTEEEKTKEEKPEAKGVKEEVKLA

B1: His6-SANBR(BTB), the predicted BTB domain of SANBR (amino acids 144-261) (domain or fragment, mouse, UniProt Q68FF0-1 144-261, looked up)
chain: GPNMVIHVCDEAKSLKEDFICPRDLLISEMKYFAEYLSMDAQRWEEVDISVHCDVHIFNWLIKYVKRNTKESKDCEIPALEPGNVISILISSEFLKMDSLVEQCIQYCHKNMNAIVAA
notes: SANBR (KIAA1841), mouse, residues 144-261 containing the BTB domain (predicted BTB domain 147-255); full-length protein has 718 amino acids; cDNA cloned from stimulated mouse splenic B cells; predicted size of the tagged fragment 15 kD; also called His6-tagged SANBR(BTB); KIAA1841 BTB domain; source: E. coli BL21DE3(RIPL), purified (HisTrap FF, SEC); not shown: His6, N-terminal, kept
B1: in series [1], the “stoichiometry N” value is 2. The binding result with GST-tagged mouse HDAC1 is listed as “binds”.

As usually defined, the stoichiometry N is a count of units in the complex or per binding partner.
